# Positions count from the first letter of the chain named. Names and notes keep the numbering of the source.
# B1: truncated APLF^AD construct corresponding to residues 449 to 490 (APLF^AD-Δ) (domain or fragment)
# chain: GLDEDNDNVGQPNEYDLNDSFLDDEEEDYEPTDEDSDWEPGKE
# notes: N-terminal Gly as leftover from TEV cleavage site; human APLF residues 449 to 490; Used for crystallisation with tailless Xl. histones and in ITC with the Dm. octamer-mix; source: E. coli BL21 Rosetta2 (DE3), purified
# B2: peptide corresponding to APLF^459–474 (peptide)
# peptide: Ac-PNEYDLNDSFLDDEEE-NH2
# notes: human APLF residues 459-474; source: synthetic peptide, bought: Biomatik
# B3: SUMO-APLF^AD truncated QA mutant (QA-Δ, residues 449 to 490) (domain or fragment)
# chain: LDEDNDNVGQPNEADLNDSALDDEEEDAEPTDEDSDAEPGKE
# notes: human APLF residues 449 to 490; source: E. coli BL21 Rosetta2 (DE3), purified; not shown: His tag, N-terminal, cleaved; SUMO, N-terminal, kept
# B4: acidic domain of Homo sapiens APLF (APLF^AD, residues 450 to 511), wild type (domain or fragment)
# chain: DEDNDNVGQPNEYDLNDSFLDDEEEDYEPTDEDSDWEPGKEDEEKEDVEELLKEAKRFMKRK
# notes: acidic domain of human APLF (aprataxin and polynucleotide kinase-like factor), residues 450 to 511; 15N- or 2H/13C/15N-labelled for NMR; Intrinsically disordered; also called APLF^AD WT; WT; source: E. coli BL21 Rosetta2 (DE3), purified (HisTrap, TEV cleavage, anion exchange, second HisTrap)
# B5: SUMO-APLF^AD quadruple anchor mutant Y462A/F468A/Y476A/W485A (QA) (domain or fragment)
# chain: B4 chain with Y13A, F19A, Y27A, W36A
# notes: acidic domain of human APLF, residues 450 to 511; also called APLF^AD QA; source: E. coli BL21 Rosetta2 (DE3), purified; not shown: His tag, N-terminal, cleaved; SUMO, N-terminal, kept
# B6: APLF^AD double anchor mutant Y462A/F468A (DA-34) (domain or fragment)
# chain: B4 chain with Y13A, F19A
# notes: acidic domain of human APLF, residues 450 to 511; source: E. coli BL21 Rosetta2 (DE3), purified
# Tests used:
# Settings in all cases: both partners purified
# [1] = molecular target: T1, stoichiometric mixture of full-length Drosophila melanogaster H2A-H2B and H3-H4 (octamer-mix) (Drosophila melanogaster, UniProt P84051 1-124; P02283 1-123; P02299 1-136; P84040 1-103); assay: ITC; 5 μM octamer-mix in the cell titrated with 90 μM APLF^AD in the syringe; 25 mM NaPi pH 7.0, 300 mM NaCl, 25°C; one set of sites model
# T1 construct: histone H2A, Drosophila melanogaster, full-length; histone H2B, Drosophila melanogaster, full-length; histone H3, Drosophila melanogaster, full-length; histone H4, Drosophila melanogaster, full-length; At 300 mM NaCl without APLF^AD this is a mixture of H2A-H2B dimers and H3-H4 tetramers, not a preformed octamer; also called stoichiometric core-histone mix; histone octamer; copies: 2 + 2 + 2 + 2
# [2] = molecular target: T2, Drosophila melanogaster histone H3-H4 complex, full-length (Drosophila melanogaster, UniProt P02299 1-136; P84040 1-103); assay: NMR titration; 20 μM [U-2H/13C/15N]H3-H4 incubated with 0, 10 or 20 μM APLF 459–474 peptide in 25 mM NaPi pH 7.0, 300 mM NaCl, then exchanged to 50 mM acetate pH 5; TROSY at 900 MHz, 308 K
# T2 construct: histone H3, Drosophila melanogaster, full-length; histone H4, Drosophila melanogaster, full-length; Eluted as a histone tetramer in SEC; H3 was 2H/13C/15N-labelled for NMR on H3-H4; also called (H3-H4)2; histone tetramer; copies: 2 + 2
# [3] = molecular target: T1, stoichiometric mixture of full-length …; assay: native MS; octamer-mix and APLF^AD mixed at 1:0.25 to 1:3 octamer equivalent to APLF^AD, exchanged into 300 mM ammonium acetate pH 7.5; Exactive Plus EMR
Binder,binding result [1],also measured
B1,binds,
B2,,binding result [2]: binds
B3,binds,
B4,,stoichiometry N [3]: 2 APLF^AD per histone octamer equivalent
B5,binds,
B6,binds,
